Experiments:
[1] = target: FrzCD^ΔH2 (Myxococcus xanthus) (UniProt P43500); assay: SEC-MALS; no DNA; Superdex 200 Increase 10/300, 50 mM NaCl, 50 mM Tris pH 8.0, about 25°C; 100 μL injected at 45 and 150 μM (FrzCD), 70 and 200 μM (ΔMA), 25 μM (ΔH1ΔH2), 25 and 65 μM (ΔH2), 25 μM (ΔH1)
[2] = target: FrzCD^ΔMA (Myxococcus xanthus) (UniProt P43500); assay: SEC-MALS; with 35 bp DNA in the injected sample: 70 μM FrzCD with 30 μM DNA; 200 μM FrzCD with 100 μM DNA; 200 μM ΔMA with 100 μM DNA; 100 μM ΔH2 with 50 μM DNA
[3] = target: FrzCD^ΔMA (Myxococcus xanthus) (UniProt P43500); assay: SEC-MALS; no DNA; Superdex 200 Increase 10/300, 50 mM NaCl, 50 mM Tris pH 8.0, about 25°C; 100 μL injected at 45 and 150 μM (FrzCD), 70 and 200 μM (ΔMA), 25 μM (ΔH1ΔH2), 25 and 65 μM (ΔH2), 25 μM (ΔH1)
[4] = target: FrzCD^ΔH1ΔH2 (Myxococcus xanthus) (UniProt P43500); assay: as above
FrzCD (EMSA/SEC-MALS) [5] = target: T1, FrzCD (EMSA/SEC-MALS) (Myxococcus xanthus, UniProt P43500 1-417); assay: EMSA; EMSA: 50 mM Tris pH 7.4, 50 mM NaCl, 1 mM DTT, 10% glycerol, 25 C, 30 min, 0.5-2 uM DNA; BLI: 10 mM Tris pH 7.4, 150 mM NaCl, 25 C, 5 nM DNA; conditions: protein: recombinant, tags: C-terminal His6 (pHis17), chain copies: 2
T1 sequence: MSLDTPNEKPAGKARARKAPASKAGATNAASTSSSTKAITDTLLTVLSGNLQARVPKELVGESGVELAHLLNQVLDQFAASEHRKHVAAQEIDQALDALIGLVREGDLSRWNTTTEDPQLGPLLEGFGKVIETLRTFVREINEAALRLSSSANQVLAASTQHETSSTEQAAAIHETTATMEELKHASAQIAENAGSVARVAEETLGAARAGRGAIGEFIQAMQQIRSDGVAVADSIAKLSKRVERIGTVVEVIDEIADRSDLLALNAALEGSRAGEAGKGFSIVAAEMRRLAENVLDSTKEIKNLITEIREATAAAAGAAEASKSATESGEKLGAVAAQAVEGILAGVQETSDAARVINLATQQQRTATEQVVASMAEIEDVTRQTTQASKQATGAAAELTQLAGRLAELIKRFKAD

His6-FrzCDΔH1ΔH2 (BLI) = target: T2, His6-FrzCDΔH1ΔH2 (BLI) (Myxococcus xanthus, UniProt P43500 1-417, del31-136); assay: BLI; EMSA: 50 mM Tris pH 7.4, 50 mM NaCl, 1 mM DTT, 10% glycerol, 25 C, 30 min, 0.5-2 uM DNA; BLI: 10 mM Tris pH 7.4, 150 mM NaCl, 25 C, 5 nM DNA; conditions: protein: recombinant; tags: N-terminal His6 (pETphos); label: 5' biotin on forward strand; blunt
T2 sequence: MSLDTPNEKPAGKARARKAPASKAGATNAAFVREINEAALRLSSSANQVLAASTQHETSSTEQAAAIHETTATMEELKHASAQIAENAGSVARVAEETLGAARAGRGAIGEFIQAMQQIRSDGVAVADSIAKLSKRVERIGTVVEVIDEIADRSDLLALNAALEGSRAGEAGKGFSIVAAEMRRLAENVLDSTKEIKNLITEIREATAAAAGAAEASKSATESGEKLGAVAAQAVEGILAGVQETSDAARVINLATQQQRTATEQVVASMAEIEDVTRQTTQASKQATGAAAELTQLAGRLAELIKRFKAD

His6-FrzCDΔH2 (BLI) = target: T3, His6-FrzCDΔH2 (BLI) (Myxococcus xanthus, UniProt P43500 1-417, del84-136); assay: as above; conditions: protein: recombinant; tags: N-terminal His6 (pETphos); label: 5' biotin on forward strand; blunt
T3 sequence: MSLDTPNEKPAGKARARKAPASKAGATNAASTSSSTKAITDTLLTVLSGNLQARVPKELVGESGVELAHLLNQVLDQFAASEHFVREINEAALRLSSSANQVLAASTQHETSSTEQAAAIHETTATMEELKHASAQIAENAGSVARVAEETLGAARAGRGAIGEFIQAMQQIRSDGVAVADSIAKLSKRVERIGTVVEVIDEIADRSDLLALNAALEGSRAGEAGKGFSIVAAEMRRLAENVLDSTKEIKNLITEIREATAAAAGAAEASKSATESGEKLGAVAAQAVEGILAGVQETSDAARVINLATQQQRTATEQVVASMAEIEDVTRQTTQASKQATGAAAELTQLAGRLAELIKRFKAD

His6-FrzCD (BLI) = target: T4, His6-FrzCD (BLI) (Myxococcus xanthus, UniProt P43500 1-417); assay: as above; conditions: protein: recombinant; tags: N-terminal His6 (pETphos); label: 5' biotin on forward strand; blunt
T4 sequence: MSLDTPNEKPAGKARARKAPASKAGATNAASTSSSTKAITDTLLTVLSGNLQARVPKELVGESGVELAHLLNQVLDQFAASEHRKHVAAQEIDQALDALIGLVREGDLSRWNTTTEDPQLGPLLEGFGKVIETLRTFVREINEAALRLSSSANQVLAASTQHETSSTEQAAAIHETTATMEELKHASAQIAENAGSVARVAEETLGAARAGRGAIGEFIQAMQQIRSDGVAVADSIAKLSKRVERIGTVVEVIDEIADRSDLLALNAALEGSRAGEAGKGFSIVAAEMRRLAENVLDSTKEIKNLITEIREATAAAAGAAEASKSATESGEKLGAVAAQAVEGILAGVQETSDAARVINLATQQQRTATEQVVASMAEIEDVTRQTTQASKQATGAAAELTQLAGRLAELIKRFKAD

[6] = target: the molecule itself; assay: SEC-MALS; no DNA; Superdex 200 Increase 10/300, 50 mM NaCl, 50 mM Tris pH 8.0, about 25°C; 100 μL injected at 45 and 150 μM (FrzCD), 70 and 200 μM (ΔMA), 25 μM (ΔH1ΔH2), 25 and 65 μM (ΔH2), 25 μM (ΔH1)
FrzCDΔH1ΔH2 (EMSA) = target: T5, FrzCDΔH1ΔH2 (EMSA) (Myxococcus xanthus, UniProt P43500 1-417, del32-136); assay: EMSA; EMSA: 50 mM Tris pH 7.4, 50 mM NaCl, 1 mM DTT, 10% glycerol, 25 C, 30 min, 0.5-2 uM DNA; BLI: 10 mM Tris pH 7.4, 150 mM NaCl, 25 C, 5 nM DNA; conditions: protein: recombinant; tags: C-terminal His6 (pHis17); blunt
T5 sequence: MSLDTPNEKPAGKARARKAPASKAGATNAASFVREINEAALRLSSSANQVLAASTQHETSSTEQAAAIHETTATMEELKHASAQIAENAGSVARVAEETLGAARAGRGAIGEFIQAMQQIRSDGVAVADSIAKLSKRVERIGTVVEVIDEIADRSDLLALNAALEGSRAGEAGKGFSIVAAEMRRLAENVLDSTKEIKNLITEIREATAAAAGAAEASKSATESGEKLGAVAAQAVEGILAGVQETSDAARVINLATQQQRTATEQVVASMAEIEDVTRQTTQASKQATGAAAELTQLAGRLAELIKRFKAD

FrzCDΔH2 (EMSA/SEC-MALS) = target: T6, FrzCDΔH2 (EMSA/SEC-MALS) (Myxococcus xanthus, UniProt P43500 1-417, del84-136); assay: as above; conditions: protein: recombinant; tags: C-terminal His6 (pHis17); blunt
T6 sequence: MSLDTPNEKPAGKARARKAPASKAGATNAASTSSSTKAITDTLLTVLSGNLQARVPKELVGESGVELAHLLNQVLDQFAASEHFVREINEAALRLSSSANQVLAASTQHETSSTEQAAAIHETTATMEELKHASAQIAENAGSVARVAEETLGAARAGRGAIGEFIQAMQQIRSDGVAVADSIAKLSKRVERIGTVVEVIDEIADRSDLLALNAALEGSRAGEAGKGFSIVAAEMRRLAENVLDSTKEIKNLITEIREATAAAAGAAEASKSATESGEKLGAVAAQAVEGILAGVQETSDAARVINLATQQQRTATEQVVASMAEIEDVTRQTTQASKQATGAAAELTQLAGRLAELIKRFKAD

FrzCDΔH1 (EMSA) = target: T7, FrzCDΔH1 (EMSA) (Myxococcus xanthus, UniProt P43500 1-417, del32-83); assay: as above; conditions: protein: recombinant; tags: C-terminal His6 (pHis17); blunt
T7 sequence: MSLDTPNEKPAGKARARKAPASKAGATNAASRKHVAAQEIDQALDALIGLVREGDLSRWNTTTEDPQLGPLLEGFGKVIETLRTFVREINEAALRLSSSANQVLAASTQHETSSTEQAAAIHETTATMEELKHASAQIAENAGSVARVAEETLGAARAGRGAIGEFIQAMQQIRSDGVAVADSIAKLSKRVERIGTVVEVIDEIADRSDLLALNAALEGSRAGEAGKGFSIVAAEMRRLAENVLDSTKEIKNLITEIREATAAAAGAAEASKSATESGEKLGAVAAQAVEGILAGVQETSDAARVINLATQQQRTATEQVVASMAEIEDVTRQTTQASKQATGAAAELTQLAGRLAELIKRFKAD

FrzCD (EMSA/SEC-MALS) [7] = target: T1, FrzCD (EMSA/SEC-MALS); assay: SEC-MALS; high-order oligomers at 200 uM protein, 100 uM DNA; EMSA: 50 mM Tris pH 7.4, 50 mM NaCl, 1 mM DTT, 10% glycerol, 25 C, 30 min, 0.5-2 uM DNA; BLI: 10 mM Tris pH 7.4, 150 mM NaCl, 25 C, 5 nM DNA; conditions: protein: recombinant; tags: C-terminal His6 (pHis17); chain copies: 2; blunt

Molecule: FrzCD^ΔH2 (from UniProt P43500 1-417) (receptor)
- stoichiometry N [1]: 4

Molecule: FrzCD^ΔMA (from UniProt P43500 1-136) (domain or fragment)
- stoichiometry N [2]: 2
- stoichiometry N [3]: 2

Molecule: FrzCD^ΔH1ΔH2 (from UniProt P43500 1-417) (receptor)
- stoichiometry N [4]: 4

B1: 8 bp DNA (dsDNA)
DNA 1: ACTGCAGT
DNA 2: ACTGCAGT
- binding result (FrzCD (EMSA/SEC-MALS) [5]; blunt): binds

B2: 178 bp DNA (dsDNA)
DNA 1: GGATCGCATCTGCCTACATCCCCAGCTCCCGGTCGGTCCGCTCGGAACCTAGCCCGGGTCAAAGACCCGGGGTCTATGTTGACCCATTTGGTGGGGATGGGTCTAATTGGACCTGGCGTTTTTTCGCGCCATGGAAATGTCAAGGCCCGTGATTCCAGACTGTTGGGCAGGGAGTT
DNA 2: AACTCCCTGCCCAACAGTCTGGAATCACGGGCCTTGACATTTCCATGGCGCGAAAAAACGCCAGGTCCAATTAGACCCATCCCCACCAAATGGGTCAACATAGACCCCGGGTCTTTGACCCGGGCTAGGTTCCGAGCGGACCGACCGGGAGCTGGGGATGTAGGCAGATGCGATCC
- Kd (His6-FrzCDΔH1ΔH2 (BLI)): 210 nM
- Kd (His6-FrzCDΔH2 (BLI)): 1730 nM
- Kd (His6-FrzCD (BLI)): 650 nM

B3: FrzCD full-length (receptor, Myxococcus xanthus, UniProt P43500 1-417, looked up)
chain: MSLDTPNEKPAGKARARKAPASKAGATNAASTSSSTKAITDTLLTVLSGNLQARVPKELVGESGVELAHLLNQVLDQFAASEHRKHVAAQEIDQALDALIGLVREGDLSRWNTTTEDPQLGPLLEGFGKVIETLRTFVREINEAALRLSSSANQVLAASTQHETSSTEQAAAIHETTATMEELKHASAQIAENAGSVARVAEETLGAARAGRGAIGEFIQAMQQIRSDGVAVADSIAKLSKRVERIGTVVEVIDEIADRSDLLALNAALEGSRAGEAGKGFSIVAAEMRRLAENVLDSTKEIKNLITEIREATAAAAGAAEASKSATESGEKLGAVAAQAVEGILAGVQETSDAARVINLATQQQRTATEQVVASMAEIEDVTRQTTQASKQATGAAAELTQLAGRLAELIKRFKAD
notes: FrzCD, cytoplasmic methyl-accepting chemotaxis protein of Myxococcus xanthus; DB 1-30, H1 31-83, H2 84-136, MA 137-417; The C-terminal hexa-histidine tag is that of the pHis17 constructs; also called His6-FrzCD; wild type; source: E. coli (BL21-AI, BL21-DE3 or C43), purified (HisTrap, ion exchange)
- stoichiometry N [6]: 2

B4: FrzCD^ΔH1 (receptor, Myxococcus xanthus, UniProt P43500 1-417, looked up)
chain: MSLDTPNEKPAGKARARKAPASKAGATNAARKHVAAQEIDQALDALIGLVREGDLSRWNTTTEDPQLGPLLEGFGKVIETLRTFVREINEAALRLSSSANQVLAASTQHETSSTEQAAAIHETTATMEELKHASAQIAENAGSVARVAEETLGAARAGRGAIGEFIQAMQQIRSDGVAVADSIAKLSKRVERIGTVVEVIDEIADRSDLLALNAALEGSRAGEAGKGFSIVAAEMRRLAENVLDSTKEIKNLITEIREATAAAAGAAEASKSATESGEKLGAVAAQAVEGILAGVQETSDAARVINLATQQQRTATEQVVASMAEIEDVTRQTTQASKQATGAAAELTQLAGRLAELIKRFKAD
notes: FrzCD of Myxococcus xanthus with the HAMP1 domain (H1, residues 31 to 83) deleted; The limits of the deletion are the printed limits of the domain; The tag is that of the pHis17 constructs; source: E. coli (BL21-AI, BL21-DE3 or C43), purified (HisTrap, ion exchange)
- stoichiometry N [6]: 4

B5: 35 bp DNA (dsDNA)
DNA 1: GTCACCTGCTCTAGCTAATAGACTGAGCCGAGGTG
DNA 2: CACCTCGGCTCAGTCTATTAGCTAGAGCAGGTGAC
- binding result (FrzCDΔH1ΔH2 (EMSA)): binds
- binding result (FrzCDΔH2 (EMSA/SEC-MALS)): binds
- binding result (FrzCDΔH1 (EMSA)): binds
- binding result (FrzCD (EMSA/SEC-MALS) [7]): binds

B6: 8-base poly-A ssDNA (ssDNA)
DNA: AAAAAAAA
- binding result (FrzCD (EMSA/SEC-MALS) [5]): binds

Source: paper PMC12077210, “Di-HAMP domains of a cytoplasmic chemoreceptor modulate nucleoid array formation and downstream signaling” (mBio, 2024)
